Experimental data as given in US20140271478A1 (University of California, published 2014).

T1: mouse integrin β8 (mouse, UniProt Q0VBD0 22-767)
T1 construct: whole, on cells; also called mouse β8; itgb8
T1 sequence (looked up): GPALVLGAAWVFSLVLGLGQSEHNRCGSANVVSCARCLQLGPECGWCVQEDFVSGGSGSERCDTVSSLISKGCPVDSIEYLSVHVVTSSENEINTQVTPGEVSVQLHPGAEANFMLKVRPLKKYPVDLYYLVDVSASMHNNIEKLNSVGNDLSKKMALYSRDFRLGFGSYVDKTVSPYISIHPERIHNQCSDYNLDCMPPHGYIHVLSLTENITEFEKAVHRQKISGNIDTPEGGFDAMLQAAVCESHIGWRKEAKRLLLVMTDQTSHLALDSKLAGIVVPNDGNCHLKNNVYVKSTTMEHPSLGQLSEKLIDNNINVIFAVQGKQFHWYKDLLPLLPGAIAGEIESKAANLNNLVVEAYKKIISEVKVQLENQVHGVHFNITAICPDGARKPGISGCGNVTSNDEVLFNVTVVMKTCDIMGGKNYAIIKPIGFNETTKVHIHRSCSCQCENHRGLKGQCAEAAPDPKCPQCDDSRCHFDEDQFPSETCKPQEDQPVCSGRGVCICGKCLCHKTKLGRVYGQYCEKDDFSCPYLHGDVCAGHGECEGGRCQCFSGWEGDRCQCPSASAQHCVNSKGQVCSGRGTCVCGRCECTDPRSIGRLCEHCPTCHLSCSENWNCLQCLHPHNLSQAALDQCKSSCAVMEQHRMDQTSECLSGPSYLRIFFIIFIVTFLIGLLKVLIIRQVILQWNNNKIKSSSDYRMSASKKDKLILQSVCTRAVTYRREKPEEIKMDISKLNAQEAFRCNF

T2: human integrin β8 swap construct KKMAFY (SEQ ID NO:131) (human, UniProt P26012 43-769)
T2 sequence: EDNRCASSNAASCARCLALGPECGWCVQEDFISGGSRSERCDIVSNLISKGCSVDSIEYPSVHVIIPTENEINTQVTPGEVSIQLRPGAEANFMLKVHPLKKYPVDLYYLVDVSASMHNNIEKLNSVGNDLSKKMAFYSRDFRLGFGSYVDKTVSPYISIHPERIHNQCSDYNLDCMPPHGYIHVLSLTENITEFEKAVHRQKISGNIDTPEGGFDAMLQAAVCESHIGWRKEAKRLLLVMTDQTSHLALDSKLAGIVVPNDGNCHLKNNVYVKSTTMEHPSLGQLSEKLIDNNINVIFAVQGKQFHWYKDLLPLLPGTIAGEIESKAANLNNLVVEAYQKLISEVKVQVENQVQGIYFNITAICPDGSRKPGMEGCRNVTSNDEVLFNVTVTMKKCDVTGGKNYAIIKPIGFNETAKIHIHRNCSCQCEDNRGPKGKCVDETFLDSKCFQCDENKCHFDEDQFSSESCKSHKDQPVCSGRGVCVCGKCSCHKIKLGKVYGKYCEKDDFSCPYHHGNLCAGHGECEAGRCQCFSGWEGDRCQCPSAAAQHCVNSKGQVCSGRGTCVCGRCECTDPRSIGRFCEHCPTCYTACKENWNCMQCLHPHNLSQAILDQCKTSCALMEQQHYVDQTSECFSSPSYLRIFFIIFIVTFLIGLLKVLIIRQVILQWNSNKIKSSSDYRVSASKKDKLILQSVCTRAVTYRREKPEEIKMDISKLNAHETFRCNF

T3: human integrin β8 swap construct RKMALF (SEQ ID NO:134) (human, UniProt P26012 43-769)
T3 sequence: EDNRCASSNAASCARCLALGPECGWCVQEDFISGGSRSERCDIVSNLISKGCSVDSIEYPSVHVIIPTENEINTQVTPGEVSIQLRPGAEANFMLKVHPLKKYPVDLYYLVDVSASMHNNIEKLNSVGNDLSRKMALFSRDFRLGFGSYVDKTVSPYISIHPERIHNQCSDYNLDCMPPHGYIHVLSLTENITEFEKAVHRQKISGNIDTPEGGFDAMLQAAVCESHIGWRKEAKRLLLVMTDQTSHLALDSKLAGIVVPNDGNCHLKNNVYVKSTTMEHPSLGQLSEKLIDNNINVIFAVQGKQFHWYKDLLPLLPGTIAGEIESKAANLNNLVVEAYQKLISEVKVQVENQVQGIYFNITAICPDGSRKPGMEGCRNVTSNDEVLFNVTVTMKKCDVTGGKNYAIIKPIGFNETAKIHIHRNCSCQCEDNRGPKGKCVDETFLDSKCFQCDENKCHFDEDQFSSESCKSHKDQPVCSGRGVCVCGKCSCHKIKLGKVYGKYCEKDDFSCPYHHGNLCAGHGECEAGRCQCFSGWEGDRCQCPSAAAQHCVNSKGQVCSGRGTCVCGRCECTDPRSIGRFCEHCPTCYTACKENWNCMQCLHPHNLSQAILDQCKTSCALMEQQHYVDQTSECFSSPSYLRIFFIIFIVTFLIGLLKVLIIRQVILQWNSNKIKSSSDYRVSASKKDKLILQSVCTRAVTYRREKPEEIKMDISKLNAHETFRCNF


How the values were obtained:
Experiment in all cases: cell staining of β8 amino acid swap constructs (175-180)
mouse integrin β8 = target: T1, mouse integrin β8
[1] = target: T2, human integrin β8 swap construct KKMAFY …
[2] = target: T3, human integrin β8 swap construct RKMALF …

| % positive (mouse integrin β8) [%] | % positive [1] [%] | % positive [2] [%] | Binder |
| --- | --- | --- | --- |
| 0 | 6 | 150 | 14E5 antibody (antibody, V domains shown, Mouse hybridoma antibody; also called hybridoma clone 14E5) VH: EVQLQQSGAELMKPGASVKISCKATGYTFSTYWIEWIKQRPGHGLEWIGHILPGSVITNYNEKFKGKAAITADTSSNTSYMQLSSLTSEDSAVYYCARWGWDSYWGQGTLVTVSS VL: DIEMTQSPSSLSASLGDRVTISCSTSQDISSSLNWYQQKPDGTVTLLIYYTSNLHSGVPSRFSGSGSGTDYSLTISNLEPEDIATYYCQQYSKLPYTFGGGTKLEIKR |
| 0 | 31 | 125 | 11E8 antibody (antibody, V domains shown, Mouse hybridoma antibody) VH: EVQLQQSGPELMKTGASVKISCKATGYTFSSYWIEWVKQRPGHGLEWIGDILPGSGTTNYNEKFKGRATVTADRSSNTAYMQLSSLTYGDSAVYYCATWGWDTYWDQGTSVTVSS VL: DIVMTQSPSSLSASLGDRVTISCSASQGISNYLNWYQQKPDGTVKLLIYYTSSLHSGVPSRFSGSGSGTDYSLTISNLEPEDIATYYCQQYSNLPYTFGGGTKLEIKR |
| 0 | 3 | 131 | 37E1B5 antibody (antibody, V domains shown) VH: EVQLVESGGGLVQPGGSLNLSCAVSGFVFSRYWMSWVRQAPGKGLEWIGEINPDSSTINYTSSLKDKFIISRDNAKNTLYLQMNKVRSEDTALYYCACLITTEDYWGQGTSVTVSS VL: QIVLTQSPSSMYASLGERVTIPCKASQDINSYLSWFQQKPGKSPKTLIYYANRLVDGVPSRFSGSGSGQDYSLTISSLEYEDMGIYYCLQYDEFPYTFGGGTKLEIK |
